In patent publication US6559282B1, “Artificial T helper cell epitopes as immune stimulators for synthetic peptide immunogens including immunogenic LHRH peptides” (United Biomedical, Inc., priority 1998, dated 2003):
Marks after values point to notes of the source that are not given here.

Tests used:
[1] = molecular target: T1, LHRH (Rattus norvegicus, UniProt P07490); assay: Serum testosterone RIA in rats immunized with LHRH peptide immunogens (immunocastration); format: in vivo, Sprague-Dawley rats, male; settings: i.m., serum at weeks 10 or 12
T1 construct: from tissue; host or cells: living male rats (in vivo, endogenous hormone)
Protocol: B. Protocols for immunization. The LHRH peptide immunogens shown in Tables 2a and 2b were evaluated on groups of 5 to 10 rats as specified by the experimental immunization protocol outlined below and by serological assays for determination of immunogenicity on serum samples:
Blood was collected and processed into serum, and stored prior to ELISA and radioimunoassay (RIA) for determination of serum testosterone values.
D. Determination of immunogen efficacy. Immunogens were evaluated for efficacy by RIA for serum testosterone values. Serum testosterone levels were measured using an RIA kit from Diagnostic Products (Los Angeles, Calif.) according to manufacturer's instructions. The lower detection limit for testosterone ranged from 0.01 to 0.03 nmol/L. Each sample was analyzed in duplicate. Serum samples were scored as being at castration level when the testosterone level was below limits of detection and as “near castration” at <0.1 nmol/L. Results were verified by comparison to testosterone levels in serum from mechanically castrated rats.
E. Results. […] The efficacy of the anti-peptide antibody responses, consequential to the cross-reactivity to natural LHRH, was established by determining serum testosterone levels. Those results are summarized in the right columns of Tables 2a and 2b as numbers of animals having castration level serum testosterone per total animals in the group.

[2] = system: artificial Th epitope; assay: ELISA of immune rat sera on the Th epitope peptide (antibody specificity); format: in vivo, rats; settings: 25 μg doses on Alum at 0 and 3 weeks; sera diluted 1:100; ELISA on respective Th peptide
[3] = system: LHRH peptide (SEQ ID NO:77); assay: ELISA of immune rat sera on LHRH peptide-coated plates (immunogenicity); format: in vivo, Sprague-Dawley rats, male; settings: 25 μg doses on Alum at 0 and 3 weeks; ELISA peptide SEQ ID NO: 28
Protocol: C. Method for determination of immunogenicity. Antibody activities were determined by ELISA (enzyme-linked immunosorbent assays) using 96-well flat bottom microtiter plates which were coated with the LHRH peptide (SEQ ID NO:77) as immunosorbent. Aliquots (100 μL) of the peptide immunogen solution at a concentration of 5 μg/mL were incubated for 1 hour at 37° C. The plates were blocked by another incubation at 37° C. for 1 hour with a 3% gelatin/PBS solution. The blocked plates were then dried and used for the assay. Aliquots (100 μL) of the test immune sera, starting with a 1:100 dilution in a sample dilution buffer and ten-fold serial dilutions thereafter, were added to the peptide coated plates. The plates were incubated for 1 hour at 37° C.
The plates were washed six times with 0.05% Tween® in PBS. 100 μL of horseradish peroxidase labeled goat-anti-rat IgG antibody was added at appropriate dilutions in conjugate dilution buffer (Phosphate buffer containing,0.5M NaCl, and normal goat serum). The plates were incubated for 1 hour at 37° C. before being washed as above. Aliquots (100 μL) of o-phenylenediamine substrate solution were then added. […] The A492 nm of the contents of each well was read in a plate reader. ELISA titers were calculated based on linear regression analysis of the absorbances, with cutoff A492 nm set at 0.5. […]

Substance	no. castrated (animals having castration level serum testosterone per total animals in the group) ([1]; 25 μg/dose, Alum (0,3 wpi))	other results
29 (KKKFFFFTKFFTFPVSFD) [compound 29]	–	no. castrated (animals having castration level serum testosterone per total animals in the group) ([1]; 400 μg/dose, Alum (0,3,6 wpi)): 5/5; no. castrated (animals having castration level serum testosterone per total animals in the group) ([1]; 400 μg/dose, IFA (0,3,6 wpi)): 8/10
47 (MSEIKGVIVHKLEGMGGEHWSYGLRPG) [compound 47]	2/6	–
37 (DLSDLKGLLLHKLDGLGGEHWSYGLRPG) [compound 37]	0/6	–
33 (KKKMMTMTRMITMITTID) [compound 33]	5/5	–
35 (KKKFITMDTKFLLASTHIL) [compound 35]	2/6	–
34 (FITMDTKFLLASTHIL) [compound 34]	1/8	no. castrated (animals having castration level serum testosterone per total animals in the group) ([1]; 100 μg/dose, IFA (0,3,6 wpi)): 4/6
30 (KKKLFLLTKLLTLPFSLD) [compound 30]	–	no. castrated (animals having castration level serum testosterone per total animals in the group) ([1]; 400 μg/dose, Alum (0,3,6 wpi)): 2/5; no. castrated (animals having castration level serum testosterone per total animals in the group) ([1]; 400 μg/dose, IFA (0,3,6 wpi)): 9/10
54 (ISMTEIRTVIVTRMETMLFGGEHWSYGLRPG) [compound 54]	0/8	–
48 (LTEMRTVIVTRMETVGGEHWSYGLRPG) [compound 48]	1/6	–
43 (LSEIKGVIVHKLEGVGGEHWSYGLRPG) [compound 43]	14/14	no. castrated (animals having castration level serum testosterone per total animals in the group) ([1]; 100 μg/dose, IFA (0,3,6 wpi)): 6/6
41 (ISEIKGVIVHKIEGIGGEHWSYGLRPG) [compound 41]	6/6	Th Reactivity: number of animals with anti-Th reactivity >0.100 A490/total animals immunized [2]: 0/6^c; LHRH Reactivity: number of animals with anti-LHRH titers >1:1000/total animals immunized [3]: 6/6
32 (KKKIITITRIITIITTI) [compound 32]	1/6	–
39 (DVSDVKGVVVHKVDGVGGEHWSYGLRPG) [compound 39]	3/6	–
40 (DFSDFKGFFFHKFDGFGGEHWSYGLRPG) [compound 40]	4/8	–
42 (MTEIRTVIVTRMETMGGEHWSYGLRPG) [compound 42]	6/6	–
38 (EISEIRGIIIHRIEGIGGEHWSYGLRPG) [compound 38]	5/6	–
